Assay results as given in the supplement of paper PMC7877785.
± gives the uncertainty stated by the source.

Experiment: self-splicing fitness, log relative to wild type (ln ratio); higher = more splicing; Tetrahymena group I intron in knt gene, E. coli kanamycin selection, DiMSum; sequences stand for … in CUCUCU…GGAGGGAAAAGUUAUCAGGCAUGCACCUGGUAGCUAGUCUUUAAACCAAUAGAUUGCAUCGGUUUAAAAGGCAAGACCGUCAAAUUGCGGGAAAGGGGUCAACAGCCGUUCAGUACCAAGUCUCAGGGGAAACUUUGAGAUGGCCUUGCAAAGGGUAUGGUAAUAAGCUGACGGACAUGGUCCUAACCACGCAGCCAAGUCCUAAGUCAACAGAUCUUCUGUUGAUAUGGAUGCAGUUCACAGACUAAAUGUCGGUCGGGGAAGAUGUAUUCUUCUCAUAAGAUAUAGUCGGACCUCUCCUUAAUGGGAGCUAGCGGAUGAAGUGAUGCAACACUGGAGCCGCUGGGAACUAAUUUGUAUGCGAAAGUAUAUUGAUUAGUUUUGGAGUACUCGUGGUCG
How it was run: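 The eight P1ex-region nucleotides of an intron in the knt kanamycin-resistance gene on pET-22b(+) were all randomised and the library put into E. coli BL21(DE3). Six replicate transformations were grown overnight at 37°C or 30°C on LB agar with or without 25 μg/mL kanamycin, together with 100 μg/mL carbenicillin, 50 μM IPTG and 0.2% rhamnose. Colonies were pooled and amplicon-sequenced on an Illumina HiSeq 2500. Fitness from DiMSum is the error-weighted combination of wild-type-normalised replicate fold changes, kanamycin over none.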

| Sequence | self-splicing fitness (ln) (30 °C) | self-splicing fitness (ln) (37 °C) |
| --- | --- | --- |
| CCAAAGCAAUAUUACGGUUG | -1.18 ± 0.062 | -0.628 ± 0.074 |
| CCAAAGCAAUAUUACGUCCC | -3.62 ± 0.35 | -1.59 ± 0.27 |
| CCAAAGCAAUAUUACGUGCG | -0.979 ± 0.065 | -0.611 ± 0.081 |
| CCACAGCAAUAUUACGACUG | -2.92 ± 0.11 | -0.694 ± 0.092 |
| CCACAGCAAUAUUACGCAAU | -3.41 ± 0.2 | -2.66 ± 0.25 |
| CCACAGCAAUAUUACGCACU | -3.41 ± 0.1 | -2.27 ± 0.12 |
| CCACAGCAAUAUUACGCCGA | -3.67 ± 0.26 | -2.26 ± 0.17 |
| CCACAGCAAUAUUACGCCGU | -2.9 ± 0.24 | -1.87 ± 0.24 |
| CCACAGCAAUAUUACGCGGG | -3.14 ± 0.12 | -2.77 ± 0.16 |
| CCACAGCAAUAUUACGGAAG | -1.87 ± 0.098 | -0.76 ± 0.1 |
| CCACAGCAAUAUUACGGACU | -3.9 ± 0.15 | -2.95 ± 0.14 |
| CCACAGCAAUAUUACGGGGA | -3.12 ± 0.19 | -2.51 ± 0.17 |
| CCACAGCAAUAUUACGGGUA | -3.44 ± 0.21 | -2.88 ± 0.18 |
| CCACAGCAAUAUUACGGUAG | -0.799 ± 0.046 | -0.163 ± 0.065 |
| CCACAGCAAUAUUACGUCCC | -3.18 ± 0.43 | -2.06 ± 0.4 |
| CCACAGCAAUAUUACGUCGA | -2.93 ± 0.11 | -1.47 ± 0.099 |
| CCACAGCAAUAUUACGUGUA | -3.23 ± 0.096 | -1.63 ± 0.069 |
| CCACAGCAAUAUUACGUUGG | -3.83 ± 0.11 | -2.51 ± 0.13 |
| CCACAGCAAUAUUACGUUUA | -3.53 ± 0.15 | -2.47 ± 0.16 |
| CCACAGCAAUAUUACGUUUG | -1.7 ± 0.054 | -0.24 ± 0.069 |
| CCAGAGCAAUAUUACGCAGU | -3.22 ± 0.13 | -3.42 ± 0.21 |
| CCAGAGCAAUAUUACGCCCG | -2.01 ± 0.26 | -1.17 ± 0.37 |

| Sequence | self-splicing fitness (ln) (30 °C) | self-splicing fitness (ln) (37 °C) |
| --- | --- | --- |
| CCAGAGCAAUAUUACGCGUA | -1.99 ± 0.19 | -4.46 ± 0.38 |
| CCAGAGCAAUAUUACGCGUG | -0.704 ± 0.069 | -0.93 ± 0.095 |
| CCAGAGCAAUAUUACGCUAG | -3.84 ± 0.29 | -2.38 ± 0.28 |
| CCAGAGCAAUAUUACGCUAU | -3.78 ± 0.43 | -2.26 ± 0.37 |
| CCAGAGCAAUAUUACGGACG | -1.73 ± 0.069 | -0.584 ± 0.085 |
| CCAGAGCAAUAUUACGGAGA | -2.38 ± 0.26 | – |
| CCAGAGCAAUAUUACGGAGC | -2.89 ± 0.35 | – |
| CCAGAGCAAUAUUACGGCGU | -4.2 ± 0.23 | -3.29 ± 0.29 |
| CCAGAGCAAUAUUACGGCUA | -2.84 ± 0.2 | -2.94 ± 0.4 |
| CCAGAGCAAUAUUACGGGAU | -4.38 ± 0.3 | -2.48 ± 0.18 |
| CCAGAGCAAUAUUACGGGGA | -3.06 ± 0.18 | -2.61 ± 0.21 |
| CCAGAGCAAUAUUACGGUCU | -4.02 ± 0.18 | -2.31 ± 0.23 |
| CCAGAGCAAUAUUACGGUUG | -1.11 ± 0.089 | -1.04 ± 0.13 |
| CCAGAGCAAUAUUACGUACA | – | -2.77 ± 0.29 |
| CCAGAGCAAUAUUACGUACU | – | -1.97 ± 0.18 |
| CCAGAGCAAUAUUACGUCGG | -4.42 ± 0.17 | -2.2 ± 0.13 |
| CCAGAGCAAUAUUACGUCUU | -3.89 ± 0.21 | -3.03 ± 0.2 |
| CCAGAGCAAUAUUACGUGGG | -3.73 ± 0.27 | -2.29 ± 0.18 |
| CCAGAGCAAUAUUACGUUAG | -3.15 ± 0.097 | -1.72 ± 0.097 |
| CCAUAGCAAUAUUACGACAU | -3.882 ± 0.026 | -2.93 ± 0.04 |
| CCAUAGCAAUAUUACGAGGG | -3.56 ± 0.15 | -2.25 ± 0.19 |
